Assay results from patent US11045560B2, “Therapeutic conjugates with sulfated dendrimers for intracellular targeting” (IC DISCOVERY GMBH, priority 2014, dated 2021).
No end group written: not given here. d02 = not defined here

B1: L-asparaginase (protein, UniProt P00805 23-348, looked up)
L-asparaginase 2: LPNITILATGGTIAGGGDSATKSNYTVGKVGVENLVNAVPQLKDIANVKGEQVVNIGSQDMNDNVWLTLAKKINTDCDKTDGFVITHGTDTMEETAYFLDLTVKCDKPVVMVGAMRPSTSMSADGPFNLYNAVVTAADKASANRGVLVVMNDTVLDGRDVTKTNTTDVATFKSVNYGPLGYIHNGKIDYQRTPARKHTSDTPFDVSKLNELPKVGIVYNYANASDLPAKALVDAGYDGIVSAGVGNGNLYKSVFDTLATAAKTGTAVVRSSRVPTGATTQDAEVDDAKYGFVASGTLNPQKARVLLQLALTQTKDPQQIQQIFNQY
notes: enzyme, homotetramer of 4 units of 34 kDa (L-asparaginase 5000E, Medac), without dendrimer
B2: Asp-polyglycerolsulfate: L-asparaginase coupled to a polyglycerolsulfate, mean molecular weight 12000 Da, according to WO2011/095311 (conjugate, UniProt P00805 23-348, looked up)
L-asparaginase 2: B1 L-asparaginase 2
modifications: polyglycerolsulfate conjugate, 12000 Da
B3: Asp-d13: L-asparaginase conjugated with maleimido dendrimer d13 (conjugate, UniProt P00805 23-348, looked up)
L-asparaginase 2: B1 L-asparaginase 2
modifications: maleimido dendrimer d13 conjugate

Columns and labels:
[1] = system: HT29, HepG2, QGP-1, A431, MCF-7, A2780; test: Inhibition of cell proliferation measured by MTT test; format: cell-based, human
[2] = system: HT29, HepG2, QGP-1, A431, MCF-7, A2780; settings: for % uptake: FACS, relative to ICC-d01, range from different cell lines, incubation 24 h, conjugates additionally ICC-labeled, fluorescence-corrected
Protocol: The human cancer cell lines A2780 and QGP-1 are cultured in RPMI medium, with 10% fetal calf serum (FCS), 2% glutamine, and penicillin/streptomycin added. All cells are seeded into medium at 1×10^5 cells/ml, cultured at 37° C. with 5% CO2, and split 1:5 two times a week. The epithelial human cancer cell lines A549, MCF7, HaCaT, and HepG2 are propagated in DMEM medium (PAN Biotech), with 10% fetal FCS, 2% glutamine, and penicillin/streptomycin. Cells are seeded into medium at 1×10^5 cells/ml (37° C. with 5% CO2, split 1:5 two times a week). HT29 cells are cultured in McCoy's medium (PAN biotech), with 10% FCS), 2% glutamine, and penicillin/streptomycin. Cells are seeded into medium at 1×10^5 cells/ml (37° C. with 5% CO2, split 1:10 two times a week). […] Afterwards, cells are fixed with cold acetone, rinsed and covered with 4,6-diamidino-2-phenylindole (DAPI, Abcam) for nuclear counterstain. Image acquisition is performed using a Leica DMRB microscope (Leica). Images are taken with a digital camera (Spot 32, Diagnostic Instruments) with the same exposure time for all pictures. […] This amount and time is sufficient to measure the supernatant after pooling and cell lysis with DMSO.
For FACS studies, 2×10^5 cells/ml cells are cultured in 24-well plates with normal culture medium or medium containing different concentrations of test substances for 3 or 24 hours. Thereafter, cells are washed with PBS and detached with 200 μl/well accutase (PAA) and washed two times with PBS. Cells are fixed with 500 μl 3% paraformaldehyde for 10 min at 4° C., stopped with 2 ml PBS and centrifuged with 250×g, for 10 min at 4° C. Supernatants are removed and cells were suspended in 200 μl PBS with 0.5% bovine serum albumin (Roth).
Fixed cells are kept at 4° C. until analysis in a FACS Calibur instrument (Becton-Dickinson).

[3] = system: HT29, HepG2, QGP-1, MCF-7; test: Inhibition of cell proliferation by MTT test, comparison to sulfated polymer; format: cell-based, human; settings: range from 4 cell lines (Table 8)
Protocol: For cytotoxicty measurements, 2×10^5 cells were incubated with 1 ml culture medium containing increasing concentrations of test substances. After 72 hs treatment, cell number, viability and cell diameter as parameter of apoptotic processes were analyzed in a cell counter and analyzer system (CASY®, Schärfe Systems). In addition, drug cytotoxicity was assessed in vitro using the MTT assay (cellular reduction of 3-(4,5-dimethylthiazol-2-yl)-2,5-diphenyltetrazolium bromide) as a test for metabolic activity of the cells. 1×10^4 cells per well were seeded in 96-well plates in 100 μl culture medium containing increasing concentration of the test substance. 10 μl MTT (5 mg/ml in PBS, obtained from Sigma) was added to each well and the plates were incubated for 4 hrs, 24 hrs, 48 hrs or up to 72 h. The resulting formazan product was dissolved with acid isopropanol and the absorbance at a wavelength of 570 nm (Ex570) was read on a Microplate Spectrophotometer (Anthos htII, Microsystems). In a couple of experiments, medium with test substances was removed after 48 hs, cells were counted and identical cell numbers with new medium without test substances were seeded in new plates. MTT assay was performed after further incubation for 72 hours.
This polymer is functionalized with the linker maleimido-PEG(4)-COOH NHS ester as described in example 2a, and further purified via RP chromatography. […]

QGP-1 tumor cells = test: Uptake into QGP-1 cells by FACS in presence of genistein or rifamycin; format: cell-based, human; settings: for uptake +genistein (%) / uptake +rifamycin (%): relative to without inhibitor; for uptake w/o inhibitor (%): without inhibitor defined as 100%
Protocol: Studies on cellular uptake measured by FACS were conducted as described in example 13. Compound Asp-d13 is incubated at a concentration of 10^−7 M in QGP-1 tumor cells for 3 h and 6 h. Incubation is done in the presence of one of the following two substrates: (1) 0.1 mM genistein, an inhibitor for endocytotic uptake (Rejman et al., Mol. Ther. 2005, 12, 468-474) or (2) 50 mM rifamycin, an inhibitor of uptake via organic anion transporter proteins (OATP; Bi et al., Drug Metab Dispos. 2012, 40, 1085-92).

[4] = range from different cell lines (Table 6)
[5] = range from different cell lines, peptide-dendrimer conjugates (Table 7)

Molecule | IC50 [1, 4] [nM] | % uptake [2] | IC50 [1, 5] [nM] | further results
DNase | > 2000 | 4-12% |  | 
Diphtheria toxin | > 500 | 8-10% |  | 
d02-P1: peptide P1 conjugated to maleimido dendrimer d02 (CGMRPEIWIAQELRRIGDEFNA; conjugated to maleimido dendrimer d02; BIM) |  |  | 900 to 2100 | 
d02-P5: peptide P5 conjugated to maleimido dendrimer d02 (C(d02)GEEQWAREIGAQLRRMADDLNAQYER-NH2; reading uncertain; also: conjugated via N-terminal Cys thiol to maleimido dendrimer d02) |  |  | 800 to 2000 | 
d02-P6: peptide P6 conjugated to maleimido dendrimer d02 (C(d02)GEDIIRNIARHAAQVGASADRSI-NH2; reading uncertain; also: conjugated via N-terminal Cys thiol to maleimido dendrimer d02) |  |  | 1200 to 2300 | 
saporin | > 1000 | 5-8% |  | IC50 [3]: > 1000 nM
B1 | > 1500 | 4-7% |  | uptake into tumor cells ([2]; in words, referring to example 15): do not show uptake into tumor cells
B2 |  |  |  | uptake +genistein (%) (QGP-1 tumor cells; 3 h, 0.1 mM genistein): 50%; uptake +rifamycin (%) (QGP-1 tumor cells; 3 h, 50 mM rifamycin): 76%; uptake w/o inhibitor (%) (QGP-1 tumor cells; 3 h): 100%; uptake +genistein (%) (QGP-1 tumor cells; 6 h, 0.1 mM genistein): 55%; uptake +rifamycin (%) (QGP-1 tumor cells; 6 h, 50 mM rifamycin): 72%; uptake w/o inhibitor (%) (QGP-1 tumor cells; 6 h): 100%; dependency of uptake on endocytosis (QGP-1 tumor cells; inhibition by genistein, in words): endocytosis could be identified due to inhibition by genistein
B3 | 10 to 20 |  |  | FACS signal in the presence of genistein relative to without inhibitor (QGP-1 tumor cells; 10^−7 M, 3 h and 6 h, 0.1 mM genistein): 80-85%; FACS signal in the presence of rifamycin relative to without inhibitor (QGP-1 tumor cells; 10^−7 M, 3 h and 6 h, 50 mM rifamycin): 37-40%
